Test results from publication PMC3317874, “Palmitoylation and membrane cholesterol stabilize μ-opioid receptor homodimerization and G protein coupling” (BMC Cell Biology, 2012).
Where a chain is given by its changes, count along the chain named. Numbers in names are those of the source.

T1: YFP-fused wild-type μ-opioid receptor (OPRM1) (rat), P33535
T1 chain: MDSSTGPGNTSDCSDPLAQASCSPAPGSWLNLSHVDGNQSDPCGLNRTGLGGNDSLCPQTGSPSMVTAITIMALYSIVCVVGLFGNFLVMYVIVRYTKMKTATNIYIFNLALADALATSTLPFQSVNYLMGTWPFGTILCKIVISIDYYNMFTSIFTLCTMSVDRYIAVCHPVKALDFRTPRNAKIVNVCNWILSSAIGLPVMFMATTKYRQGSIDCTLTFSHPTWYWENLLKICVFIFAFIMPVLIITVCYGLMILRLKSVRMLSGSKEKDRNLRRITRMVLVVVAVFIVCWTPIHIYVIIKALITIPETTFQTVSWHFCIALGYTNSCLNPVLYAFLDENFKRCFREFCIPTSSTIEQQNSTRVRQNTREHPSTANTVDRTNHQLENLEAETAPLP

B1: CFP-fused wild-type μ-opioid receptor (OPRM1), P33535 1-398 (receptor)
chain: T1 chain
modifications: here or on the partner: palmitoylated at C3.55(170); palmitoylated at C3.55(170)
B2: CFP-fused wild-type μ-opioid receptor (OPRM1) (receptor, rat, UniProt P33535 1-398, looked up)
chain: T1 chain
modifications: palmitoylated at C3.55(170)
notes: μ-opioid receptor (OPRM1), wild type; also called CFPOPRM1; source: HEK cells (also HEKOPRM1 and HEKC170A cells), transiently transfected, in living or fixed cells; not shown: CFP, C-terminal, kept
B3: CFP-fused C170A mutant of μ-opioid receptor (OPRM1) (receptor, rat, UniProt P33535 1-398, looked up)
chain: T1 chain with C170A
notes: μ-opioid receptor (OPRM1) with C3.55(170) mutated to alanine; also called CFPC170A; source: HEK cells (also HEKOPRM1 and HEKC170A cells), transiently transfected, in cells; not shown: CFP, C-terminal, kept

How the values were obtained:
Assay in all cases: FRET or BRET; CFP and YFP constructs transiently transfected into HEK cells; normalized net FRET analysed on the cell membrane; also after 12 h of 0.5 μM simvastatin, simvastatin with 20 ng/ml cholesterol, or 50 μM 2-BP
[1] = target: T1, YFP-fused wild-type μ-opioid receptor …; conditions: remark: other sources report otherwise
[2] = target: T2, YFP-fused C170A mutant of μ-opioid receptor (OPRM1) (rat, UniProt P33535 1-398, C170A); conditions: partners not purified
T2 construct: μ-opioid receptor (OPRM1) with C3.55(170) mutated to alanine; also called YFPC170A; source: HEK cells, transiently transfected, in cells; not shown: YFP, C-terminal, kept

[3] = target: T3, YFP-fused wild-type μ-opioid receptor (OPRM1) (rat, UniProt P33535 1-398, palmitoylated at C3.55(170)); conditions: partners not purified
T3 construct: μ-opioid receptor (OPRM1), wild type; also called YFPOPRM1; source: HEK cells, transiently transfected, in cells; not shown: YFP, C-terminal, kept

Binder | normalized net FRET [1] | normalized net FRET [2] | normalized net FRET [3]
B1 | 0.49 |  | 
B2 |  | 0.3 | 
B3 |  | 0.07 | 0.27
